Measurements published in patent US20040057952A1 (IMMUNOGEN, published 2004).

Molecular target: T1, Muc16 on tumor cells (human, UniProt Q8WXI7 1-14507)
T1 construct: whole, on cells; Endogenous protein; also called CA125
Assay: flow cytometry on WISH cells

B1: OC125 (antibody)
chain 1: QVQLQESGPELVKPGASVKISCKASGYTFTDYNMHWVKQSHGKSLEWIGYIYPYNGDTGYNQKFRNKASLTVDTSSSTAYMELRSLTSEDSAVYYWARSGGFWYFDVWGQGGTTVTVSS
chain 2: DIQMTQSPAILSASPGEKVTMTCRATPSVSYMHWYQQKPGSSPKPLIYTTSNLASGVPARFSGGGSGTSYSLTVSRVEVEDAATYYCQQWSRSPPTFGAGTKLEIK
fold fluorescence shift at saturation binding against MJ-171: > 5 fold
